Experimental data from the supplement of paper PMC7877785.
± gives the uncertainty stated by the source.

Assay: self-splicing fitness, log relative to wild type (ln ratio); higher = more splicing; Tetrahymena group I intron in knt gene, E. coli kanamycin selection, DiMSum; sequences stand for … in CUCUCU…GGAGGGAAAAGUUAUCAGGCAUGCACCUGGUAGCUAGUCUUUAAACCAAUAGAUUGCAUCGGUUUAAAAGGCAAGACCGUCAAAUUGCGGGAAAGGGGUCAACAGCCGUUCAGUACCAAGUCUCAGGGGAAACUUUGAGAUGGCCUUGCAAAGGGUAUGGUAAUAAGCUGACGGACAUGGUCCUAACCACGCAGCCAAGUCCUAAGUCAACAGAUCUUCUGUUGAUAUGGAUGCAGUUCACAGACUAAAUGUCGGUCGGGGAAGAUGUAUUCUUCUCAUAAGAUAUAGUCGGACCUCUCCUUAAUGGGAGCUAGCGGAUGAAGUGAUGCAACACUGGAGCCGCUGGGAACUAAUUUGUAUGCGAAAGUAUAUUGAUUAGUUUUGGAGUACUCGUGGUCG
How it was run: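 The eight P1ex-region nucleotides of an intron in the knt kanamycin-resistance gene on pET-22b(+) were all randomised and the library put into E. coli BL21(DE3). Six replicate transformations were grown overnight at 37°C or 30°C on LB agar with or without 25 μg/mL kanamycin, together with 100 μg/mL carbenicillin, 50 μM IPTG and 0.2% rhamnose. Colonies were pooled and amplicon-sequenced on an Illumina HiSeq 2500. Fitness from DiMSum is the error-weighted combination of wild-type-normalised replicate fold changes, kanamycin over none.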

Row | Sequence | self-splicing fitness (ln) (30 °C) | self-splicing fitness (ln) (37 °C)
1 | GAACAGCAAUAUUACGCUAG | -1.69 ± 0.098 | -0.109 ± 0.092
2 | GAACAGCAAUAUUACGCUUA | -1.2 ± 0.084 | -0.826 ± 0.099
3 | GAACAGCAAUAUUACGGAGG | -3.02 ± 0.14 | -2.54 ± 0.2
4 | GAACAGCAAUAUUACGGCAG | -2.31 ± 0.12 | -3.02 ± 0.24
5 | GAACAGCAAUAUUACGGCUA | -0.474 ± 0.077 | -0.117 ± 0.084
6 | GAACAGCAAUAUUACGGGGG | -2.08 ± 0.15 | -2.42 ± 0.2
7 | GAACAGCAAUAUUACGGGUU | -2.91 ± 0.1 | -2.04 ± 0.11
8 | GAACAGCAAUAUUACGUAGC | -0.75 ± 0.074 | -0.22 ± 0.1
9 | GAACAGCAAUAUUACGUAUA | -0.835 ± 0.083 | -0.324 ± 0.1
10 | GAACAGCAAUAUUACGUAUG | -1.02 ± 0.091 | -0.888 ± 0.12
11 | GAACAGCAAUAUUACGUCAG | -2.51 ± 0.21 | -3.2 ± 0.36
12 | GAACAGCAAUAUUACGUGCU | -2.89 ± 0.14 | -1.88 ± 0.14
13 | GAACAGCAAUAUUACGUUAC | -2.53 ± 0.14 | -1.32 ± 0.16
14 | GAAGAGCAAUAUUACGACAU | -2.22 ± 0.017 | -1.35 ± 0.035
15 | GAAGAGCAAUAUUACGACGC | -1.55 ± 0.15 | 0.291 ± 0.16
16 | GAAGAGCAAUAUUACGAGUG | -4.54 ± 0.41 | -2.81 ± 0.24
17 | GAAGAGCAAUAUUACGCAAA | – | -2.69 ± 0.33
18 | GAAGAGCAAUAUUACGCAAG | -3.6 ± 0.39 | -2.68 ± 0.36
19 | GAAGAGCAAUAUUACGCAAU | -3.87 ± 0.2 | -1.65 ± 0.13
20 | GAAGAGCAAUAUUACGCACC | -0.341 ± 0.2 | 0.037 ± 0.22
21 | GAAGAGCAAUAUUACGCAGA | -2.65 ± 0.32 | -2.73 ± 0.41
22 | GAAGAGCAAUAUUACGCCAA | – | -2.54 ± 0.45

Row | Sequence | self-splicing fitness (ln) (30 °C) | self-splicing fitness (ln) (37 °C)
23 | GAAGAGCAAUAUUACGCCCG | -1.59 ± 0.47 | –
24 | GAAGAGCAAUAUUACGCCUA | -2.55 ± 0.34 | -1.3 ± 0.25
25 | GAAGAGCAAUAUUACGCGAA | -3.32 ± 0.23 | -2.94 ± 0.38
26 | GAAGAGCAAUAUUACGCUAG | -4.24 ± 0.37 | -1.13 ± 0.21
27 | GAAGAGCAAUAUUACGGAGC | – | -1.64 ± 0.37
28 | GAAGAGCAAUAUUACGGAUU | -2.29 ± 0.15 | -1.79 ± 0.19
29 | GAAGAGCAAUAUUACGGCAG | -4.54 ± 0.36 | -1.97 ± 0.23
30 | GAAGAGCAAUAUUACGGCUA | -1.5 ± 0.15 | -0.512 ± 0.15
31 | GAAGAGCAAUAUUACGGCUU | -0.88 ± 0.14 | 0.407 ± 0.13
32 | GAAGAGCAAUAUUACGGGAC | -3.76 ± 0.25 | -2.3 ± 0.24
33 | GAAGAGCAAUAUUACGUACG | -3.52 ± 0.25 | -2.15 ± 0.22
34 | GAAGAGCAAUAUUACGUAGA | -4.54 ± 0.42 | -2.21 ± 0.25
35 | GAAGAGCAAUAUUACGUCCU | -2.59 ± 0.48 | -0.861 ± 0.29
36 | GAAGAGCAAUAUUACGUUUG | -4.05 ± 0.2 | -2.8 ± 0.23
37 | GAAUAGCAAUAUUACGAAAC | -1.62 ± 0.24 | -0.632 ± 0.17
38 | GAAUAGCAAUAUUACGAACU | -0.471 ± 0.085 | 0.508 ± 0.1
39 | GAAUAGCAAUAUUACGAAGA | -2.78 ± 0.33 | -1.45 ± 0.25
40 | GAAUAGCAAUAUUACGAAUC | -2.32 ± 0.14 | -0.98 ± 0.14
41 | GAAUAGCAAUAUUACGACUA | -1.42 ± 0.2 | -0.533 ± 0.31
42 | GAAUAGCAAUAUUACGAGAG | -2.92 ± 0.2 | -3.05 ± 0.28
43 | GAAUAGCAAUAUUACGAGCG | -1.62 ± 0.069 | -0.354 ± 0.076
